Experimental data: US20060035359A1 (BURNHAM INSTITUTE, published 2006)
Values belong to the molecule of their own block, whether it stands above or below them.

Tests used:
His-CKS1 = His-CKS1 (UniProt P61024)
[1] = target: T1, 35S-labeled in vitro translated (IVT) SBP1 protein (human, UniProt Q8N5L8 1-163, 35S label); test: GST pull-down of 35S-labeled IVT SBP1, SDS-PAGE and fluorography
T1 construct: Translated in reticulocyte lysate from the full-length SBP1 cDNA; The two differ only at the C-terminal residues; also called full-length SBP1; human SBP1
T1 sequence: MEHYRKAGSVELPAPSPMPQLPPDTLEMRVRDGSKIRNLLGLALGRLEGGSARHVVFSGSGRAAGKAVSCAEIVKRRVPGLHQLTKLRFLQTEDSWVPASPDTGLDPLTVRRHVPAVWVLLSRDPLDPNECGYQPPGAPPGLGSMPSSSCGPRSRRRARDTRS
Procedure: cDNAs encoding wild type Survivin or Survivin T34E was cloned into the EcoRI and XhoI sites of pGEX-4T-1 (Amersham-Pharmacia, Sweden), expressed in XL-1-blue cells (Stratagene, Inc., La Jolla, Calif.), and affinity-purified using glutathione-Sepharose, using methods essentially as described in (Xie et al., 1998, Biochemistry, 37:6410-6418). A GST-CD40 fusion protein was included as a negative control. Purified GST-fusion proteins (0.5-1.0 μg immobilized on 10-20 μl of glutathione beads) and 2.5 μl of […] reticulocyte lysates (TNT-Lysates; Promega, Inc., Madison, Wis.) containing ³⁵S-labeled in vitro translated (IVT) SBP1 protein were incubated in […] of HKMEN (10 mM HEPES [pH 7.2], 142 mM KCl, 5 mM MgCl₂, 2 mM EGTA, 0.1% NP-40) at 4° C. for 30 minutes. The beads were washed 3× with 1 ml HKMEN solution to remove unbound ³⁵S-labeled IVT SBP1 protein, followed by boiling in 25 μl of Laemmli-SDS sample buffer to release and denature SBP1 bound to the matrix-bound GST-fusion protein. The eluted proteins were analyzed by SDS-PAGE (12%) and detected by fluorography.

[2] = target: T2, fusion protein of the B42 trans-activation domain fused to pro-caspase-9 (UniProt P55211 1-416); test: yeast two-hybrid, LEU2 growth and beta-galactosidase filter assay
T2 sequence (looked up): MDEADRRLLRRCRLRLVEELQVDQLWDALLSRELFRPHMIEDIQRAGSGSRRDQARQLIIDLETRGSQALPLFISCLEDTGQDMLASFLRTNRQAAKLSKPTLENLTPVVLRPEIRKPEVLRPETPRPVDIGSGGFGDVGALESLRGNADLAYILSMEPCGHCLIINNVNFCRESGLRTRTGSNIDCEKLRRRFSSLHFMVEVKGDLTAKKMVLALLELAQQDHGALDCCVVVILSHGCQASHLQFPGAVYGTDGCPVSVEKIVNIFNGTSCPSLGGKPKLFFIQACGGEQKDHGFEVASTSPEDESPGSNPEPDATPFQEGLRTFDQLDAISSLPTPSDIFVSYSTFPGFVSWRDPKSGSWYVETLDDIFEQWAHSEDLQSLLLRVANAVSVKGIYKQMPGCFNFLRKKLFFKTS
Procedure: (§1) A plasmid (1 μg DNA) encoding a fusion protein of the LexA DNA-binding domain appended to the N-terminus of SBP1 was co-transformed into yeast strain EGY48 with […] of pJG4-5 plasmid encoding fusion proteins of the B42 trans-activation domain fused to Survivin, Survivin T34E, Bcl-2, pro-caspase-9, XIAP, Bax, or Apaf-1. Bcl-2, pro-caspase-9, XIAP, Bax, and Apaf-1 are other […]. […] Only the Survivin T34E scored positive for leucine and β-galactosidase activity, wild type Survivin, Bcl-2, caspase-9, XIAP, Bax and Apaf-1 scored negative under the conditions.

[3] = target: fusion protein of the B42 trans-activation domain fused to XIAP (UniProt P98170 1-497); test: as above
Procedure: as §1

[4] = target: T3, fusion protein of the B42 trans-activation domain fused to Apaf-1 (UniProt O14727 1-1248); test: as above
T3 sequence (looked up): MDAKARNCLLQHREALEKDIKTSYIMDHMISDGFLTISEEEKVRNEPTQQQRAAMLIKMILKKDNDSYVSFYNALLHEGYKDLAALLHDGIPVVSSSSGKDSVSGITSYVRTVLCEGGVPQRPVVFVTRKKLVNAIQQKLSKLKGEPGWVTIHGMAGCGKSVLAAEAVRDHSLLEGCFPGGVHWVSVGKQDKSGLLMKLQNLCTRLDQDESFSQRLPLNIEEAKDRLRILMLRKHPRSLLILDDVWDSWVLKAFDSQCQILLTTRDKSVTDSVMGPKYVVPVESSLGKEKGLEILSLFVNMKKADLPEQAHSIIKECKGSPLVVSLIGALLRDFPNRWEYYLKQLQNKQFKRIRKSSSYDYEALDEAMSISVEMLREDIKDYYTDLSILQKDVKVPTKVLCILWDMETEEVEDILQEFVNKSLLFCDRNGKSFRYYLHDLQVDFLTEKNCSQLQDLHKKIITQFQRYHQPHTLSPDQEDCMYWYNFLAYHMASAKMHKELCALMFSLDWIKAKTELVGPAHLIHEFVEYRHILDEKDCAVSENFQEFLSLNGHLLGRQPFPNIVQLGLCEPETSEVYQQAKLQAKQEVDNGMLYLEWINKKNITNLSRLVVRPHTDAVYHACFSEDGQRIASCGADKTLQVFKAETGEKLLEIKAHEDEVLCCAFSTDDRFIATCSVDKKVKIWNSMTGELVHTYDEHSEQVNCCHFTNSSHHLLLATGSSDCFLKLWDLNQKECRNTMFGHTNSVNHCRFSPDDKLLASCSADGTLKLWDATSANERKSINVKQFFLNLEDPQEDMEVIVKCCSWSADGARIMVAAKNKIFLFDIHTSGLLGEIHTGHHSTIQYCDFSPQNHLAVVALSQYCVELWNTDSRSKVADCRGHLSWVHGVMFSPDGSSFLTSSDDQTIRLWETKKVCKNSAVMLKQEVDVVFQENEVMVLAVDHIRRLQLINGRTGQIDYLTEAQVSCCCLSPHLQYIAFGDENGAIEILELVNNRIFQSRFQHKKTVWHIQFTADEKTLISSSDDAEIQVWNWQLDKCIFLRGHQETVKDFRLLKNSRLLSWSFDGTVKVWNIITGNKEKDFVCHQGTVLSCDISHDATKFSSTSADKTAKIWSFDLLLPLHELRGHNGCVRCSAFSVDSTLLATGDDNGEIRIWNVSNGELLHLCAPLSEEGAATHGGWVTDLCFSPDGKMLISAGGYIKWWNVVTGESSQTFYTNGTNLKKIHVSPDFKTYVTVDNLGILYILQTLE
Procedure: as §1

Sequence of fusion protein of the B42 trans-activation domain fused to XIAP (P98170 whole entry, the tested form may be a part): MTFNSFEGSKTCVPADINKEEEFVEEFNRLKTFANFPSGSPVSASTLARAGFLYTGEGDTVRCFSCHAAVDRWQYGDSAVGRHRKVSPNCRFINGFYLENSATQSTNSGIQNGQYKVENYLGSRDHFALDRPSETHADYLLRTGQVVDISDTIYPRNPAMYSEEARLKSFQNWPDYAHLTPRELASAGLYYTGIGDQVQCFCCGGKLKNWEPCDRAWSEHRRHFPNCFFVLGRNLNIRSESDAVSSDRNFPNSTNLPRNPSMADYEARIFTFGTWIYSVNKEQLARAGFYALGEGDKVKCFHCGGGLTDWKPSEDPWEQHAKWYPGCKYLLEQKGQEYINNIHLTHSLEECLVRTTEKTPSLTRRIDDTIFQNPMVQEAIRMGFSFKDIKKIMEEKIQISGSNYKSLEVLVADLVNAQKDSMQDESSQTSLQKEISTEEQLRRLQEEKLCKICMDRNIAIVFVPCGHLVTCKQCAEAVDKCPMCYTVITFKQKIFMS
Sequence of His-CKS1 (P61024 whole entry, looked up): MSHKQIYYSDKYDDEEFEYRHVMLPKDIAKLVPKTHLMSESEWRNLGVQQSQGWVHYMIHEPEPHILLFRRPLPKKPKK

Molecule: immunoprecipitated cyclin B1/cdc2
histone H1 phosphorylation (His-CKS1): is phosphorylated in the added presence of His-Cks 1

binding result [1]: no binding
B1: GST-CD40 cytosolic domain protein (other, UniProt P25942 216-277, looked up)
chain: KKVAKKPTNKAPHPKQEPQEINFPDDLPGSNTAAPVQETLHGCQPVTQEDGKESRISVQERQ
notes: domain: cytosolic domain; Negative control; also called GST-CD40 fusion protein; not shown: glutathione S-transferase (GST) fusion partner

binding result [2]: no binding
binding result [3]: no binding
binding result [4]: no binding
B2: fusion protein of the LexA DNA-binding domain appended to the N-terminus of SBP1 (other)
chain: MKALTARQQEVFDLIRDHISQTGMPPTRAEIAQRLGFRSPNAAEEHLKALARKGVIEIVSGASRGIRLLQEEEEGLPLVGRVAAGEPLLAQQHIEGHYQVDPSLFKPNADFLLRVSGMSMKDIGIMDGDLLAVHKTQDVRNGQVVVARIDDEVTVKRLKKQGNKVELLPENSEFKPIVVDLRQQSFTIEGLAVGVIRNGDWLMEHYRKAGSVELPAPSPMPQLPPDTLEMRVRDGSKIRNLLGLALGRLEGGSARHVVFSGSGRAAGKAVSCAEIVKRRVPGLHQLTKLRFLQTEDSWVPASPDTGLDPLTVRRHVPAVWVLLSRDPLDPNECGYQPPGAPPGLGSMPSSSCGPRSRRRARDTRS
notes: Yeast two-hybrid construct expressed in yeast strain EGY48
